Results on 2 molecules are retold here after article PMC3662668, “Structural and Functional Basis for Inhibition of Erythrocyte Invasion by Antibodies that Target Plasmodium falciparum EBA-175” (PLoS Pathogens, 2013).

In this test the target is T1, wildtype PfEBA-175 RII expressed on the surface of HEK293T cells (Plasmodium falciparum, strain not …, UniProt Q8IBE8).
T1 construct: PfEBA-175 of P. falciparum, region II; The pRE4 vector supplies the signal and membrane anchor for surface display (surmise); also called wildtype RII; source: HEK293T, transfected (pRE4 vector), on the cell surface; not shown: GFP, C-terminal, kept
Briefly: immunostaining of cells or tissue; DBL proteins on the surface of transfected HEK293T cells, probed with 10 µg/ml R217 or R218, then Alexafluor-546 anti-mouse IgG1; fluorescence microscopy. The conditions noted are these: one partner purified.

B1: R218 IgG (antibody, V domains shown)
VH: EVQLQQSGAELVKPGASVKLSCTASGFNIKDNYMHWVKQRPEQGLEWIGRIDPANGNTKYDPKFQGKATITADTSSNTAYLQLSSLTSEDTAVYYCARHYDGYFLYYFEYWGQGTTLTVSS
VL: DIQMTQTTSSLSASLGDRVTITCRAGQDISNYLNWYQQKPDGTVKLLIYYTSRLHSGVPSRFSGSGSGTDYSLTISNLEQEDIATYFCQQGSTFPWTFGGGTKLEIK
notes: mouse IgG1 heavy chain; its Fab part as the heavy chain of m5 (deposited structure); as the light chain of m5; IgG1 mouse monoclonal antibody; also called R218 antibody
As for B1, the binding result is reported as “binds”.

B2: R217 IgG (antibody, V domains shown)
VH: VQLQQSGPELVKPGTSVKISCKTSGYTFTENTMHWVKQSHGESLDWVGGINTDNGGTTYSQKFKGKATLTVDKSSSTAYMELRSLTSEDSAVYYCSTGYDAMDYWGQGTSVTVSS
VL: NIVLTQSPASLAVSLGQRATISCRASKGVDSYGNSFMHWYQQRPGQPPKLLIYLASHLESGVPARFSGSGSRTDFTLTIDPVEADDAATYYCQQNNEDPFTFGSGTKLEIK
notes: mouse IgG1 heavy chain; its Fab part as the heavy chain of m3 (deposited structure); as the light chain of m3; IgG1 mouse monoclonal antibody; also called R217 antibody
Consider B2, for which the binding result is recorded as “binds”.
